B1: Melanoma-associated antigen 8 (Homo sapiens), P43361 (parent)
chain: MLLGQKSQRYKAEEGLQAQGEAPGLMDVQIPTAEEQKAASSSSTLIMGTLEEVTDSGSPSPPQSPEGASSSLTVTDSTLWSQSDEGSSSNEEEGPSTSPDPAHLESLFREALDEKVAELVRFLLRKYQIKEPVTKAEMLESVIKNYKNHFPDIFSKASECMQVIFGIDVKEVDPAGHSYILVTCLGLSYDGLLGDDQSTPKTGLLIIVLGMILMEGSRAPEEAIWEALSVMGLYDGREHSVYWKLRKLLTQEWVQENYLEYRQAPGSDPVRYEFLWGPRALAETSYVKVLEHVVRVNARVRISYPSLHEEALGEEKGV
partner: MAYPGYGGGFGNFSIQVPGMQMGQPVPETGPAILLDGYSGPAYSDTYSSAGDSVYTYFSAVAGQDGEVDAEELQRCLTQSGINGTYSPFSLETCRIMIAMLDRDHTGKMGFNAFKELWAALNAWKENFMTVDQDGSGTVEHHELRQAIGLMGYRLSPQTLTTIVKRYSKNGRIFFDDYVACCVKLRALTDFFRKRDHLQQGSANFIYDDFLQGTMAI
B2: Abl interactor 2 (Homo sapiens), Q9NYB9 (parent)
chain: MAELQMLLEEEIPGGRRALFDSYTNLERVADYCENNYIQSADKQRALEETKAYTTQSLASVAYLINTLANNVLQMLDIQASQLRRMESSINHISQTVDIHKEKVARREIGILTTNKNTSRTHKIIAPANLERPVRYIRKPIDYTILDDIGHGVKWLLRFKVSTQNMKMGGLPRTTPPTQKPPSPPMSGKGTLGRHSPYRTLEPVRPPVVPNDYVPSPTRNMAPSQQSPVRTASVNQRNRTYSSSGSSGGSHPSSRSSSRENSGSGSVGVPIAVPTPSPPSVFPAPAGSAGTPPLPATSASAPAPLVPATVPSSTAPNAAAGGAPNLADGFTSPTPPVVSSTPPTGHPVQFYSMNRPASRHTPPTIGGSLPYRRPPSITSQTSLQNQMNGGPFYSQNPVSDTPPPPPPVEEPVFDESPPPPPPPEDYEEEEAAVVEYSDPYAEEDPPWAPRSYLEKVVAIYDYTKDKEDELSFQEGAIIYVIKKNDDGWYEGVMNGVTGLFPGNYVESIMHYSE

Variants of: B1
Conditions: with gran_human GCA

| Variant | effect of a mutation on the interaction |
| --- | --- |
| R218C | with no effect |

Variants of: B2
Conditions: with ift20_human IFT20, Q8IY31
Chain of ift20_human IFT20, Q8IY31 (Q8IY31 whole entry): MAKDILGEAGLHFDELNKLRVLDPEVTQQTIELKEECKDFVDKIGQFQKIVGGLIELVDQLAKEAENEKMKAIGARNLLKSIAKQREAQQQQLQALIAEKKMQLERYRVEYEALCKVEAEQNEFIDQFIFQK

| Variant | effect of a mutation on the interaction |
| --- | --- |
| R373C | with no effect |

Variants of: B2
Conditions: with k1h1_human KRT31, Q15323
Chain of k1h1_human KRT31, Q15323 (Q15323 whole entry): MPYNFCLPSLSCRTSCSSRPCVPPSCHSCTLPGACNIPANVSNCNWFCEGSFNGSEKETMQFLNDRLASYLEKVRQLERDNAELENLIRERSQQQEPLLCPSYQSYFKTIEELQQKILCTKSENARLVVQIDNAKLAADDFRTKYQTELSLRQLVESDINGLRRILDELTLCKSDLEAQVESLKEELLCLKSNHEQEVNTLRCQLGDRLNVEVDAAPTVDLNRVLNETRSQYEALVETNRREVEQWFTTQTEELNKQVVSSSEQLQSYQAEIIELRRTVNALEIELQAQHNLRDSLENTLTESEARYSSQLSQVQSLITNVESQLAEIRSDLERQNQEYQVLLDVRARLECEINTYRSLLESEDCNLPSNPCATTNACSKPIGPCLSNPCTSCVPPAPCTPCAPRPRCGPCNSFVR

| Variant | effect of a mutation on the interaction |
| --- | --- |
| R373C | with no effect |

Variants of: B2
Conditions: with aapk2_human PRKAA2, P54646
Chain of aapk2_human PRKAA2, P54646 (P54646 whole entry, looked up): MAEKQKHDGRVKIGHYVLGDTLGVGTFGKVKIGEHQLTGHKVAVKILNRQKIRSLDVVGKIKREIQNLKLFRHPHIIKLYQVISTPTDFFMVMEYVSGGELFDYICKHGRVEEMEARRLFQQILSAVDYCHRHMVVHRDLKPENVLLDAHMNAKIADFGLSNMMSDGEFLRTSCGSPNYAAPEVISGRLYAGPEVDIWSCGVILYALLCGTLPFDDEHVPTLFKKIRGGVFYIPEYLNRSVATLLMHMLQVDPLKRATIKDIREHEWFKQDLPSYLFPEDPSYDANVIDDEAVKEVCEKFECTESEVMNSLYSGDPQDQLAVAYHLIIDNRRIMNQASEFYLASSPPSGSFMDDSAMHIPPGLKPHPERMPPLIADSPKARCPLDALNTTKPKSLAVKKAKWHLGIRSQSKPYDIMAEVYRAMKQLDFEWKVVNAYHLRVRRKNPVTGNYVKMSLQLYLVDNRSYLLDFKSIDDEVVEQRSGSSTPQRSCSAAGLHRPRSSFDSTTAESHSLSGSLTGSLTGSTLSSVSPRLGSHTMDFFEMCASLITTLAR

| Variant | effect of a mutation on the interaction |
| --- | --- |
| R373C | with no effect |

Variants of: B2
Conditions: with stam2_human STAM2, O75886

| Variant | effect of a mutation on the interaction |
| --- | --- |
| R373C | with no effect |

Variants of: B2
Conditions: with aapk1_human PRKAA1, Q13131
Chain of aapk1_human PRKAA1, Q13131 (Q13131 whole entry, looked up): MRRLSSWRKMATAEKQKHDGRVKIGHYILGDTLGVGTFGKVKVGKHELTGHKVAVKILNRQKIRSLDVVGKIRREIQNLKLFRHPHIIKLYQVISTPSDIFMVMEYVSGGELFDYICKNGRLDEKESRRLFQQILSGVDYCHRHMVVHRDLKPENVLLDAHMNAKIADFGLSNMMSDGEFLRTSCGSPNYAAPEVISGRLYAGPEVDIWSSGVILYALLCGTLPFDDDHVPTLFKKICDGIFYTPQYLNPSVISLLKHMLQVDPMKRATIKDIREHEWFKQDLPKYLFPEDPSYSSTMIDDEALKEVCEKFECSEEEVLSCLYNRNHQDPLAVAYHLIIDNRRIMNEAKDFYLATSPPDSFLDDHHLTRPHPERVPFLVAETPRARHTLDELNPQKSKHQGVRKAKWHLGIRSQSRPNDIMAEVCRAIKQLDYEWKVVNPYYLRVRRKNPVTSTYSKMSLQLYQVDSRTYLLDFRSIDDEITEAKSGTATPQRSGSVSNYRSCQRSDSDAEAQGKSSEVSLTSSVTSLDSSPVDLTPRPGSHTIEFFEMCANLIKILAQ

| Variant | effect of a mutation on the interaction |
| --- | --- |
| R373C | with no effect |

Variants of: B2
Conditions: with hnrpk_human HNRNPK

| Variant | effect of a mutation on the interaction |
| --- | --- |
| R373C | with no effect |

Variants of: B2
Conditions: with vasp_human VASP

| Variant | effect of a mutation on the interaction |
| --- | --- |
| R373C | with no effect |

Variants of: B2
Conditions: with KRT15, P19012
Chain of KRT15, P19012 (P19012 whole entry): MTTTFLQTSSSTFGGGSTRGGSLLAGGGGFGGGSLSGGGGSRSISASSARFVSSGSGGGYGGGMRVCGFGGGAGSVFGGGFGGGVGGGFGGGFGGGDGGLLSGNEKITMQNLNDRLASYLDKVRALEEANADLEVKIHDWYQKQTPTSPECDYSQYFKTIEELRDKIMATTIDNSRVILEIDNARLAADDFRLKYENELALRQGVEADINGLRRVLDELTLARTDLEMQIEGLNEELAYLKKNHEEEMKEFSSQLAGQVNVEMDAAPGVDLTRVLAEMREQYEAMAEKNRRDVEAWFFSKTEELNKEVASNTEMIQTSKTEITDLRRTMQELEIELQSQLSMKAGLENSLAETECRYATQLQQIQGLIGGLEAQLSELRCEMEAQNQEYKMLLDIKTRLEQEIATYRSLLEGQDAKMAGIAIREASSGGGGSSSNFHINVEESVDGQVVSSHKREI

| Variant | effect of a mutation on the interaction |
| --- | --- |
| R373C | with no effect |

Variants of: B2
Conditions: with nup62_human NUP62, P37198
Chain of nup62_human NUP62, P37198 (P37198 whole entry): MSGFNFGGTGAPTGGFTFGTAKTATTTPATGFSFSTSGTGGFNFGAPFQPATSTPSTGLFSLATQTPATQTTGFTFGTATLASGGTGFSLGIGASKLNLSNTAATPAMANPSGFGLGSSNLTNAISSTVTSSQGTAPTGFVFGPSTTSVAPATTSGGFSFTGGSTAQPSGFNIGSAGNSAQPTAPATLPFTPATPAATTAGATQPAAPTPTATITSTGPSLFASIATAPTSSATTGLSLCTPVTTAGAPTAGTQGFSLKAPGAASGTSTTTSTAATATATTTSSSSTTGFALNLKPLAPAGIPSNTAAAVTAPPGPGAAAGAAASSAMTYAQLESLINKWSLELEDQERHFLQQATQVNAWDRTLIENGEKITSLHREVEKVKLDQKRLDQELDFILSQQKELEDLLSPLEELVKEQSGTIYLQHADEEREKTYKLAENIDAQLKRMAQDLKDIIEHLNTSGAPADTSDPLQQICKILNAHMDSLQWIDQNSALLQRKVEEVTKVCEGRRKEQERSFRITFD

| Variant | effect of a mutation on the interaction |
| --- | --- |
| R373C | with no effect |

Variants of: B2
Conditions: with KRT19, P08727
Chain of KRT19, P08727 (P08727 whole entry): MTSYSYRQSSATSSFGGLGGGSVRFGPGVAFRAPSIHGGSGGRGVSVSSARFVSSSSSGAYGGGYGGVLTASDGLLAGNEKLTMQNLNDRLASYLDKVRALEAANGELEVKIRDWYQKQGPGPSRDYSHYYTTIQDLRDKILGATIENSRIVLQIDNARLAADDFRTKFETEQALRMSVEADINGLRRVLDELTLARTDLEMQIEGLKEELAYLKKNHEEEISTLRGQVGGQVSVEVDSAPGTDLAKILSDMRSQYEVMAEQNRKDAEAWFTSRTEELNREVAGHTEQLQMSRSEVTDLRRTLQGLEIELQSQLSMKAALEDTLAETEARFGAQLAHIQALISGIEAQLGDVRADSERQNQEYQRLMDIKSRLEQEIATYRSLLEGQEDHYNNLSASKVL

| Variant | effect of a mutation on the interaction |
| --- | --- |
| R373C | with no effect |

Variants of: B2
Conditions: with nck2_human NCK2, O43639
Chain of nck2_human NCK2, O43639 (O43639 whole entry): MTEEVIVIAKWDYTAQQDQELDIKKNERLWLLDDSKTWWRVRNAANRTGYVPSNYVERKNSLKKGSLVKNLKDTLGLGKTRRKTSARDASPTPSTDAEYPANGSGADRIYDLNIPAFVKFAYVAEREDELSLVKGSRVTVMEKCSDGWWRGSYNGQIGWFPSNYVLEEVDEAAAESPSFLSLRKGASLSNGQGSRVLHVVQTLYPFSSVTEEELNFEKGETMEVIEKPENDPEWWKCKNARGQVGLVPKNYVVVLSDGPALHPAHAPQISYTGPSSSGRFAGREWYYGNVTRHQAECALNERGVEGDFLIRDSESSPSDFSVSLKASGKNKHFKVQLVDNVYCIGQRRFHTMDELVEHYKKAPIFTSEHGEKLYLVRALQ

| Variant | effect of a mutation on the interaction |
| --- | --- |
| R373C | with no effect |

Variants of: B2
Conditions: with hgs_human HGS

| Variant | effect of a mutation on the interaction |
| --- | --- |
| R373C | with no effect |

Variants of: B2
Conditions: with sdcb1_human SDCBP

| Variant | effect of a mutation on the interaction |
| --- | --- |
| R373C | with no effect |

Variants of: B2
Conditions: with tri32_human TRIM32, Q13049
Chain of tri32_human TRIM32, Q13049 (Q13049 whole entry): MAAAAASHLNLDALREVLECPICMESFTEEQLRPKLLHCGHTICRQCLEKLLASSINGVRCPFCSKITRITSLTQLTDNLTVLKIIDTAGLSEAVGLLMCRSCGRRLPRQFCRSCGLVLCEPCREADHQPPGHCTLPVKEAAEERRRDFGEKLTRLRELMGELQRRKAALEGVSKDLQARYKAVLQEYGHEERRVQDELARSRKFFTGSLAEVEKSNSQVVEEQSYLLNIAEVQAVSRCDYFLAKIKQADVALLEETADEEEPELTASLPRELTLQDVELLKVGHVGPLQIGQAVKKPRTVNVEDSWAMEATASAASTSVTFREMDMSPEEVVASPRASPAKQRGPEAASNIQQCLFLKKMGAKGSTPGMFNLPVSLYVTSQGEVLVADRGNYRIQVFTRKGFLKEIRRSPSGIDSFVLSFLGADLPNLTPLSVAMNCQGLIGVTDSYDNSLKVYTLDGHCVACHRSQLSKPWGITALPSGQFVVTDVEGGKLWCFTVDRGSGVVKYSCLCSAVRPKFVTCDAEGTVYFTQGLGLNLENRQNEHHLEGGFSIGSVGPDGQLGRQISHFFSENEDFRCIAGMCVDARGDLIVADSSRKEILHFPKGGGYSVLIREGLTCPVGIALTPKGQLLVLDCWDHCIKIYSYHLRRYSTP

| Variant | effect of a mutation on the interaction |
| --- | --- |
| R373C | with no effect |

Variants of: B2
Conditions: with pcm1_human PCM1, Q15154

| Variant | effect of a mutation on the interaction |
| --- | --- |
| R373C | with no effect |

Variants of: B2
Conditions: with vinc_human VCL

| Variant | effect of a mutation on the interaction |
| --- | --- |
| R373C | with no effect |

Variants of: B2
Conditions: with crx_human CRX

| Variant | effect of a mutation on the interaction |
| --- | --- |
| R373C | with no effect |

Variants of: B2
Conditions: with mr1l1_human MRFAP1L1, Q96HT8
Chain of mr1l1_human MRFAP1L1, Q96HT8 (Q96HT8 whole entry): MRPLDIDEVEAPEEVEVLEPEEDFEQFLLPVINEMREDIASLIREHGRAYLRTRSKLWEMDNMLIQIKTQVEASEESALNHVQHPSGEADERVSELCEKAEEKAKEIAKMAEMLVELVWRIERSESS

| Variant | effect of a mutation on the interaction |
| --- | --- |
| R373C | with no effect |

Variants of: B2
Conditions: with efs_human EFS

| Variant | effect of a mutation on the interaction |
| --- | --- |
| R373C | with no effect |

Source: IntAct's records for PubMed 29892012
